In PMC5893359 (Cancer cell, 2018):

B1: bovine RNase A (enzyme, UniProt P61823 27-150, looked up)
chain: KETAAAKFERQHMDSSTSAASSSNYCNQMMKSRNLTKDRCKPVNTFVHESLADVQAVCSQKNVACKNGQTNCYQSYSTMSITDCRETGSSKYPNCAYKTTQANKHIIVACEGNPYVPVHFDASV

Tests used:
[1] = target: epidermal growth factor receptor, endogenous in A431 cell lysate (human (endogenous in A431)) (UniProt P00533); assay: ELISA
[2] = target: epidermal growth factor receptor, endogenous in A431 cell lysate (human (endogenous in A431), UniProt P00533 25-1210); assay: ELISA

Molecule | Kd [1] [µM] | Kd [2] [µM]
amphiregulin, recombinant (from UniProt P15514 20-187) (ligand) | 0.217 | 
B1 |  | 0.885
